Laboratory results published in publication PMC2865030.

Tests used:
Assay in all cases: ITC
[1] = biological target: yeast Hsp90 (wild type, His-tagged) (yeast) (UniProt P02829)
[2] = biological target: yeast Hsp90 M705V (His-tagged) (yeast) (UniProt P02829)
[3] = biological target: Tah1 (TPR-containing protein associated with Hsp90) (S. cerevisiae) (UniProt P25638)
Chain of Tah1 (TPR-containing protein associated with Hsp90) (S. cerevisiae) (P25638 whole entry): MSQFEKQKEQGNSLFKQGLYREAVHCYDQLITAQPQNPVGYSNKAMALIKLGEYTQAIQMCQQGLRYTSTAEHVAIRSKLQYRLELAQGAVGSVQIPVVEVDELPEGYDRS

Chain of mouse CHIP (C-terminal of Hsp70-interacting protein) (Q9WUD1 whole entry): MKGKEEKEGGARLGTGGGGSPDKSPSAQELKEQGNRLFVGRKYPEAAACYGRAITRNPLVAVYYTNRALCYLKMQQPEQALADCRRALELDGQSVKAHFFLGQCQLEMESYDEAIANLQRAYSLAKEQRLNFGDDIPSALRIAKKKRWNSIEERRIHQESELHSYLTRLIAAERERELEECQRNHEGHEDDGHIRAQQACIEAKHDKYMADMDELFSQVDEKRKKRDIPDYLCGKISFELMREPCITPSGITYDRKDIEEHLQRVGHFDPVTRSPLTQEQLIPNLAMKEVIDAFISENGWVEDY
Chain of C-terminal domain of Sti1 (cSti1), His-tagged (domain or fragment) (P15705 133-581): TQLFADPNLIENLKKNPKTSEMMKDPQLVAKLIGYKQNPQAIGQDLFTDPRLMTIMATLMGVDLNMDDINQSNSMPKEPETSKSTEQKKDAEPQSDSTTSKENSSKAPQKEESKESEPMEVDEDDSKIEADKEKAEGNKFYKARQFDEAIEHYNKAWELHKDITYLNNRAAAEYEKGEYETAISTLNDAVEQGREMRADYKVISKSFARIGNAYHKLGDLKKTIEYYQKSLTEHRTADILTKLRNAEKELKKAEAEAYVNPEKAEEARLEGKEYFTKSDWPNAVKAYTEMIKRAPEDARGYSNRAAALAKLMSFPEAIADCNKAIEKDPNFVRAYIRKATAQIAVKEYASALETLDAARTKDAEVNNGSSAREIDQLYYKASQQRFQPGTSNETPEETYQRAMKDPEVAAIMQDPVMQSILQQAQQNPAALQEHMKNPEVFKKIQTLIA

Substance	stoichiometry N [1]	Kd [2]	stoichiometry N [2]	Kd [3]	stoichiometry N [3]
C-terminal domain of Sti1 (cSti1), His-tagged (domain or fragment)	0.88	–	–	–	–
mouse CHIP (C-terminal of Hsp70-interacting protein) (from UniProt Q9WUD1 1-304) (natural protein)	1.2	6.7 µM	1.1	–	–
… decapeptide (Ssa1 C-terminal decapeptide, Val at -4 replaced by Ala)	–	–	–	14.8 µM	1.1
… decapeptide (Ssa1 C-terminal decapeptide, Val at -4 replaced by Met)	–	–	–	4.2 µM	0.98
… decapeptide (yeast Hsp90 C-terminal decapeptide, Met at -4 replaced by Ala)	–	–	–	3.3 µM	0.89
… decapeptide (yeast Hsp90 C-terminal decapeptide, Met at -4 replaced by Val)	–	–	–	9.8 µM	1.1
… decapeptide (yeast Hsp90 C-terminal decapeptide, TE replaced by Ala-Ala)	–	–	–	0.75 µM	0.81
